From paper PMC10066265, “Inhibitor-3 inhibits Protein Phosphatase 1 via a metal binding dynamic protein–protein interaction” (Nature Communications, 2023)
Values joined by “and” are separate entries in the source; they are usually repeats but may differ in a detail not shown here. Equal values may be shown once.

What was measured:
Conditions in all cases: both partners purified
PP1α_(7-330) [1] = biological target: T1, PP1α_(7-330) (UniProt P62136 7-330); experiment: SPR; as a1 but pH 6.5; His6-PP1 captured on Ni-NTA chip, I3_(27-68) injected; two state model
T1 construct: Protein Phosphatase 1 alpha (PP1α), residues 7-330; His6-PP1 was captured on the Ni-NTA sensor chip as the SPR ligand; Mn2+ in all buffers; also called Protein Phosphatase 1; His6-PP1; source: E. coli, purified (Ni-NTA, SEC)

PP1α_(7-330) [2] = biological target: T1, PP1α_(7-330); experiment: SPR; as a1 but pH 7.0; His6-PP1 captured on Ni-NTA chip, I3_(27-68) injected; two state model
PP1α_(7-330) [3] = biological target: T1, PP1α_(7-330); experiment: SPR; as a1 but pH 7.5; His6-PP1 captured on Ni-NTA chip, I3_(27-68) injected; two state model
PP1α_(7-330) C273S = biological target: T2, PP1α_(7-330) C273S (UniProt P62136 7-330, C273S); experiment: SPR; His6-PP1 captured on Ni-NTA chip (NiHC200M), I3 variants injected; 25 °C; 20 mM Tris pH 8.0, 500 mM NaCl, 1 mM MnCl2, 0.5 mM TCEP, 0.05% Tween-20; one-to-one one state or one-to-one two state model (TraceDrawer)
T2 construct: Protein Phosphatase 1 alpha (PP1α), residues 7-330, C273S; His6-tagged form captured on the Ni-NTA sensor chip; also called PP1 C273S; source: E. coli, purified (Ni-NTA, SEC)

PP1α_(7-330) H66K = biological target: T3, PP1α_(7-330) H66K (UniProt P62136 7-330, H66K); experiment: as above
T3 construct: Protein Phosphatase 1 alpha (PP1α), residues 7-330, H66K (lacks the M1 metal); His6-tagged form captured on the Ni-NTA sensor chip; also called PP1 H66K; source: E. coli, purified (Ni-NTA, SEC)

PP1α_(7-330) [4] = biological target: T1, PP1α_(7-330); experiment: as above
PP1α_(7-330) H248N = biological target: T4, PP1α_(7-330) H248N (UniProt P62136 7-330, H248N); experiment: as above
T4 construct: Protein Phosphatase 1 alpha (PP1α), residues 7-330, H248N; His6-tagged form captured on the Ni-NTA sensor chip; also called PP1 H248N; source: E. coli, purified (Ni-NTA, SEC)
T4 sequence (P62136 7-330 H248N): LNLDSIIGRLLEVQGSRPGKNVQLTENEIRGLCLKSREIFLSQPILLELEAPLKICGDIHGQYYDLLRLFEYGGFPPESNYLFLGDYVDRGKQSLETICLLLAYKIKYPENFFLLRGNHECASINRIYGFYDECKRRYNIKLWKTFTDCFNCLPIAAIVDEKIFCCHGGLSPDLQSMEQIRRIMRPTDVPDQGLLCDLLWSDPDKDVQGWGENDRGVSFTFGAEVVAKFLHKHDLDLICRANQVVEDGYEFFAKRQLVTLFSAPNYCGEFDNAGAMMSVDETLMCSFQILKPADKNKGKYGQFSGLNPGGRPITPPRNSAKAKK

T3 sequence (P62136 7-330 H66K): as the sequence (P62136 7-330 H248N) above, with H60K, N242H counted along it
T1 sequence (P62136 7-330): as the sequence (P62136 7-330 H248N) above, with N242H counted along it
T2 sequence (P62136 7-330 C273S): as the sequence (P62136 7-330 H248N) above, with N242H, C267S counted along it

B1: I3_(27-68) (I3 PP1 interaction domain) (domain or fragment, human, UniProt O60927 27-68, looked up)
chain: SLTIKLRKRKPEKKVEWTSDTVDNEHMGRRSSKCCCIYEKPR
notes: PPP1R11), human, residues 27-68; source: E. coli BL21 (DE3), purified (Ni-NTA, TEV cleavage, heat, SEC); not shown: His6, N-terminal, cleaved; MBP, N-terminal, cleaved
With B1 the Kd (PP1α_(7-330) [1]) was 16.2 nM and 17.7 nM and 17.1 nM, the Kd (PP1α_(7-330) [2]) was 14.9 nM and 16.2 nM and 17.1 nM and the Kd (PP1α_(7-330) [3]) was 8.32 nM and 9.2 nM and 9.58 nM. For the same binder, the Kd (PP1α_(7-330) C273S) was 16.9 nM and 15.8 nM and 15.6 nM, the Kd (PP1α_(7-330) H66K) was 6.66 nM and 5.65 nM and 5.52 nM and the Kd (PP1α_(7-330) [4]) was 9.87 nM and 7.88 nM and 10.5 nM and 9.04 nM. The Kd (PP1α_(7-330) H248N) was 7.74 nM and 5.38 nM.
